{"source": "patent US20200247855A1", "about": "“THERAPY AND DIAGNOSTICS” (OXFORD UNIVERSITY INNOVATION LIMITED, priority 2017, published 2020)", "key": {"[1]": {"target": "T1, CCL8_HUMAN (human), P80075", "T1 chain": "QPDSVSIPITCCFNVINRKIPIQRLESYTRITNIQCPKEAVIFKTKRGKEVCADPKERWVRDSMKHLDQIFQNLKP", "experiment": "FACS, inhibition of CCL8-647 binding to THP-1 cells", "conditions": "modification not given"}, "[2]": {"target": "T2, CCL5_HUMAN (human), P13501", "T2 chain": "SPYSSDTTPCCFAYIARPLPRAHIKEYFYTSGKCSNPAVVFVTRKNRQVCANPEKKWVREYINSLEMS", "experiment": "BLI", "conditions": "remark: other sources report otherwise"}, "[3]": {"target": "T1, CCL8_HUMAN (human), P80075", "experiment": "fluorescence polarisation; Kd1, two-site fit", "conditions": "modification not given"}, "[4]": {"target": "T1, CCL8_HUMAN (human), P80075", "experiment": "fluorescence polarisation; Kd2, two-site fit", "conditions": "modification not given"}}}
{"binder": "EDEDYEDFFKPVTAYF", "note": "[P672_PEP (peptide BK1.1)]", "values": [{"measurement": "IC50", "setting": "[1]", "value": 4900, "unit": "nM"}]}
{"binder": "P974_AMBCA, A0A023FDY8 22-118 (protein) ENTQQEEQDYDYGTDTCPFPVLANKTNKAKFVGCHQKCNGGDQKLTDGTACYVVERKVWDRMTPMLWYECPLGECKNGVCEDLRKKEDCRKGNGEEK", "values": [{"measurement": "Kd", "setting": "[2]", "value": 160, "unit": "nM"}]}
{"binder": "EDEDYEDFFKPVTAYF", "note": "[P672_PEP-FITC]", "values": [{"measurement": "Kd", "setting": "[3]", "value": 11.9, "unit": "nM"}, {"measurement": "Kd", "setting": "[4]", "value": 252, "unit": "nM"}]}
